Source: paper PMC7662849 (2020)
Groups on a side chain read outwards from the residue.

Target: T1, H3(E5)2 branched peptide (not fully specified)
T1 chain: Ac-EEEEEGGK([Gly-Gly-Kme3‑VGGTAPAS])GGEEEEE-NH2
Assay: NMR titration

B1: PSIP1 (LEDGF) PWWP domain PWWP (protein)
chain: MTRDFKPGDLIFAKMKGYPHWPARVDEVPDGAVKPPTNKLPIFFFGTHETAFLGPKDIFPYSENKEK
With B1 the Kd was 360 µM.
